Results from publication PMC6934455, “Molecular Dynamics model of peptide-protein conjugation: case study of covalent complex between Sos1 peptide and N-terminal SH3 domain from Grb2” (Scientific Reports, 2019).
Like-named read-outs stand apart in the source and are kept apart here.

What was measured:
[1] = molecular target: Sos1-X′ peptide (Homo sapiens); test: NMR
[2] = molecular target: Sos1-X′ peptide (Homo sapiens); test: NMR; remark: listed apart in the source

Kd [1]: 4.6 µM | Kd [2]: 4.9 µM
B1: Grb2 N-SH3 2-59, P62993 (protein)
chain: EAIAKYDFKATADDELSFKRGDILKVLNEESDQNWYKAELNGKDGFIPKNYIEMKPHP
